Assay results from FireProtDB (doi:10.1016/s0022-2836(03)00725-3).
Where “and” joins values, the source holds several entries; their conditions need not be identical. Equal values may be shown once.

Conditions: Escherichia coli (strain K12), pH 7.4, Thermal, DSC, sodium phosphate 10 mM, transition: 3, reversible: yes, whole UniProt chain shown

B1: DNA-binding protein HU-alpha wild type, P0ACF0 (protein)
chain: MNKTQLIDVIAEKAELSKTQAKAALESTLAAITESLKEGDAVQLVGFGTFKVNHRAERTGRNPQTGKEIKIAAANVPAFVSGKALKDAVK
In the case of B1, the “heat capacity change of unfolding” value (NaCl 1 M) is reported as 0.55 kcal/mol/K and 0.9 kcal/mol/K, the “unfolding enthalpy (calorimetric)” value (NaCl 1 M) is reported as 49.7 kcal/mol and 39.3 kcal/mol and 33.7 kcal/mol and the Tm (NaCl 1M) is reported as 69 °C. The “heat capacity change of unfolding” value (NaCl 1M) was 0.55 kcal/mol/K and the “unfolding enthalpy (calorimetric)” value (NaCl 1M) was 42.8 kcal/mol.
